Where a chain is given by its changes, count along the chain named.
Legend:
[1] = target: T1, recombinant human PEDF expressed in CHO cells (UniProt P36955)
T1 sequence: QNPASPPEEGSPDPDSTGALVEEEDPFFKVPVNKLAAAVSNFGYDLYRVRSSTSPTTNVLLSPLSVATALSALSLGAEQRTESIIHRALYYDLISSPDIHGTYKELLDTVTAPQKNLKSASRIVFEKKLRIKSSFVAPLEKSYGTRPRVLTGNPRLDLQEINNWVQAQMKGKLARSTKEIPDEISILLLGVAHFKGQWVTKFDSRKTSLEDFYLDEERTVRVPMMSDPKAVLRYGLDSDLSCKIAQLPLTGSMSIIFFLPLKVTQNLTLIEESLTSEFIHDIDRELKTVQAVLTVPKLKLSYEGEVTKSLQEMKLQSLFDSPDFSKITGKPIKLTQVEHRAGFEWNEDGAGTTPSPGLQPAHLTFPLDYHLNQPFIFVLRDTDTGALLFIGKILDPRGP

[2] = system: T2, pigment epithelium derived factor (PEDF) isolated from human plasma
T2 sequence: T1 sequence with T53M, E78D, Q79E

protein kinase CK2 holoenzyme
phosphorylation by CK2 in the presence of poly-L-lysine (autoradiography) [1]: both rPEDF and pIPEDF were phosphorylated by CK2 in the presence of poly-L-lysine | stoichiometry of phosphorylation [1]: ˜0.1 mol of phosphate per mol of rPEDF | stoichiometry of phosphorylation, rPEDF heat-treated (15 min at 56° C.) before phosphorylation [1]: reached a plateau at ˜0.25 mol/mol | phosphorylation by CK2 in the presence of poly-L-lysine (autoradiography) [2]: both rPEDF and pIPEDF were phosphorylated by CK2 in the presence of poly-L-lysine | stoichiometry of phosphorylation [2]: ˜0.02 mol of phosphate per mol of plasma PEDF | stoichiometry of phosphorylation, plasma PEDF heat-treated (15 min at 56° C.) before phosphorylation [2]: reached a plateau at ˜0.12 mol/mol
